Measurements taken from patent publication US20250059275A1 (SHANGHAI NIGENE BIOLOGICAL SCIENCE AND TECHNOLOGY, published 2025).

Key:
[1] = target: T1, human TIGIT expressed on CHO-K1 cells (CHO-huTIGIT) (human, UniProt Q495A1 22-244); test: flow cytometry competition on CHO-huTIGIT-eGFP cells; competitor biotinylated human CD155-Fc
T1 construct: whole, on cells; also called CHO-huTIGIT-eGFP; human TIGIT-expressing CHO cells
T1 sequence (looked up): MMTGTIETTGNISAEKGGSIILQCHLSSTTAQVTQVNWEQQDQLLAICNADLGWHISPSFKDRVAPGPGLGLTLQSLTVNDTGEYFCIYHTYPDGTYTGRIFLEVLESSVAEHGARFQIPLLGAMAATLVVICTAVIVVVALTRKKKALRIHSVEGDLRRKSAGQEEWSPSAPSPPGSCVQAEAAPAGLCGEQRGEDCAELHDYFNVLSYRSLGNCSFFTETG
Procedure: (§1) CHO-huTIGIT-eGFP cells were implanted in V-bottom 96 well plates. The antibodies of Example 2 and reference antibodies were diluted to different concentrations respectively and added (100 μL/well) to the 96 well plate covered with cells (100%)), incubated at 4° C. for 1 hour.
(§2) Washed the cells by adding 200 μL/well washing buffer, and centrifuged at 1600 rpm (˜260×g), 4° C. for 3 minutes, and discarded the supernatant, repeated twice. […] (on ice) for 1 hour. Add 30 μL washing buffer contains streptavidin-594 (f.c.=10 μg/ml) into the well, then the cells were incubated at 4° C. for 30 minutes. Wash once and transfer the cells to a flat bottom 96 well plate, and analyze the cells with CytoFLEX S. Take the logarithm of antibody concentration (μg/mL) with the base of 10 as the abscissa and the intermediate fluorescence value corresponding to each antibody concentration as the ordinate.

[2] = target: T1, human TIGIT expressed on CHO-K1 cells …; test: flow cytometry on CHO-huTIGIT cells, anti-human IgG Fc Alexa Fluor 594
Procedure: (§3) CHO-huTIGIT cells or CHO-mkTIGIT cells were implanted in 96 well plates. The antibodies of Example 2 were diluted to different concentrations respectively and added to 96 well plates covered with cells (100 μL/well), incubated at 4° C. (on ice) for 1 hour.
(§4) Washed the cells by adding 200 μL/well washing buffer, and centrifuged at 1600 rpm (˜260×g), 4° C. for 3 minutes, and discarded the supernatant, repeated twice. Add 30 μL washing buffer containing anti-human IgG secondary antibody (Jackson ImmunoResearch, #109-585-190, Alexa Fluor® 594 AffiniPure Goat Anti-Human IgG, Fcγ fragment specific) to each well, cultured cells at 4° C. (on ice) for 1 hour. Washing twice, transferred the cells to a flat bottom 96 well plate, and analyze the cells with CytoFLEX S. The antibody concentration was plotted with the logarithm of 10 as the abscissa and the median fluorescence value of two channels as the ordinate. The EC₅₀ (CHO-huTIGIT and CHO-mkTIGIT) and the peak value of the curve were compared.

[3] = target: T1, human TIGIT expressed on CHO-K1 cells …; test: flow cytometry blocking assay on CHO-huTIGIT-eGFP cells; blocked ligand: biotinylated human CD155-Fc
Procedure: as §1, §2

[4] = target: T2, cynomolgus monkey TIGIT expressed on CHO-K1 cells (CHO-mkTIGIT) (cynomolgus monkey, UniProt A0A7N9I9V4 89-312); test: flow cytometry on CHO-mkTIGIT cells, anti-human IgG secondary antibody
T2 construct: whole, on cells
Procedure: as §3, §4

[5] = target: T2, cynomolgus monkey TIGIT expressed on …; test: flow cytometry on CHO-mkTIGIT cells, anti-human IgG Fc Alexa Fluor 594
Procedure: as §3, §4

[6] = target: T3, human TIGIT-HIS (Biointron, BI120) (human, UniProt Q495A1 22-141, limits assumed); test: Octet BLI tandem epitope competition, TIGIT-HIS loaded on the sensor, first antibody step
T3 construct: also called recombinant huTIGIT protein; recombinant human TIGIT protein; not shown: His tag
T3 sequence (looked up): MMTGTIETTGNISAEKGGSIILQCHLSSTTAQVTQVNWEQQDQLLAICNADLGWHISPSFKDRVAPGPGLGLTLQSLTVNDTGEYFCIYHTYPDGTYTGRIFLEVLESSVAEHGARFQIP

T2 sequence (A0A7N9I9V4 entry or part of it): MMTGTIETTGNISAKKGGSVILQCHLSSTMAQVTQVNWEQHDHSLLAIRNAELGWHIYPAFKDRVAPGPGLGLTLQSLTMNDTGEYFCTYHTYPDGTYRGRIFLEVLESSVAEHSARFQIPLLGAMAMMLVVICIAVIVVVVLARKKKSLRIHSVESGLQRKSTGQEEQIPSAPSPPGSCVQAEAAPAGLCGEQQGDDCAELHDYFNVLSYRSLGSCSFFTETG

Binder | IC50 [1] | EC50 [2] | IC50 (read off the curve) [3] | EC50 (read off the curve) [4] | EC50 [5] | binding result [6]
JHH4A042-H3 (antibody, V domains shown) VH: QVQLQQSGPGLVKPSQTLSLTCAISGDSVSSNSAAWNWIRQSPSRGLEWLGRTYFRSKWYNDYAVSVKSRITINPDTSKNQFSLQLNSMTPEDTAVYYCARERALYDILAGSFDYWGQGTLVTVSS VL: not shown | 0.8 µg/mL | 4.63 ng/mL | ~0.8 µg/mL | ~1000 ng/mL | 79.2 ng/mL | –
JHH4A042-H7 (antibody, V domains shown) VH: QVQLQQSGPGLVKPSQTLSLTCAISGDSVSSNSAVWNWIRQSPSRGLEWLGRTYYRSKWYNDYAVSVKSRITINPDTSKNQFSLQLNSMTPEDTAVYYCARERALYDILAGSFDYWGQGTLVTVSS VL: not shown | 0.973 µg/mL | 6.03 ng/mL | ~1 µg/mL | – | 605 ng/mL | –
JHH4A057 (antibody, V domains shown) VH: QVQLVQSGSELKKPGASVKVSCKASGYTLTSHALNWVRQAPGQGLEWMGWINTNTGNPTYVQGFTGRFVFSLDTSVSTAYLQISSLKAEDTAVYYCARGYSSPPRMDVWGQGTTVTVSS VL: EIVLTQSPGTLFLSPGERATLSCRASQSVSRNYLVWYQQKPGQAPRLLIYGASTRATGIPDRFSGSGSGTDFTLTIRRLEPEDFALYYCQQYGSSPFTFGQGTKLEIN | 0.899 µg/mL | 4.12 ng/mL | ~0.9 µg/mL | ~9 ng/mL | 8.87 ng/mL | –
JHH4D035a (antibody, V domains shown, Fully human antibody from TC-mAb mice) VH: EVQLVESGGGLVQPGRSLRLSCAASGFTFDDFAMHWVRQAPGKGLEWVSGISWNGIGIGYADSVKGRFTISRDNAKNSLYLQMNSLRAEDTALYFCAKDKGLRRYYGMDVWGQGITVIVSS VL: not shown | – | – | – | – | – | binds
JHH4E061a (antibody, V domains shown, Fully human antibody from TC-mAb mice) VH: EVQLVESGGGLIQPGRSLTLSCVASGFTFDDYAMHWVRQAPGKGLEWVSGISWNGIGIGYADSVKGRFTISRDNAKNSLILQMNSLRIEDTALYYCAKDKGLRRYYGMDVWGQGTTVTVSS VL: EIVMTQSPLSLPVTPGEPASISCRSSRSLLHSNGYNYLDWYLQKPGQSPQLLIYLGSNRASGVPDRFSGSGSGTDFTLKINRVEAEDVGVYYCMQALQTPPTFGGGTKVEIK | – | – | – | – | – | binds
JHH4B056a (antibody, V domains shown) VH: EVQLVESGGGLVQPGRSLRLSCAASGFTFDDYAMHWVRQAPGKGLEWVSGISWNGIGIGYADSVKGRFTISRDNAKNSLYLQMNSLRAEDTALYYCAKDGGDYHYYGMDVWGQGTTVTVSS VL: not shown | 1 µg/mL | 4.59 ng/mL | ~1 µg/mL | ~9 ng/mL | 9.58 ng/mL | –
JHH4A063 (antibody, V domains shown, also called 4A063-hIgG1) VH: EVQLVESGGGLVQPGRSLRLSCTASGFNFDDYGMHWVRQAPGKGLEWVSGISWNSISIGSADSVKGRFTISRDNAKNSLYLQMNSLRPEDTALYYCAKDGGDHYYYGMDVWGQGTTVTVSS VL: DIMMTQSPLSLPVTPGEPASISCRSSQSLLHSNGYKYLNWYLQKPGQSPLLLIYLGSNRASGVPDRFSGSGSGTDFTLKISRVEAEDVGVYYCMQALQTPLTFGGGTKVEIK | 0.559 µg/mL | 3.49 ng/mL | ~0.5 µg/mL | ~4 ng/mL | 4.25 ng/mL | –
JHH4B030a (antibody, V domains shown) VH: QVQLQQSGPGLVKPSQTLSLTCAISGDSVSSNSAAWNWIRQSPSRGLEWLGRTYYRSKWYNDYAVSVKSRITINPDTSKNQFSLQLNSVTPEDTAVYYCARERGTYYDILTGDFDYWGQGTLVTVSS VL: not shown | 0.777 µg/mL | 4.3 ng/mL | ~0.8 µg/mL | – | 857 ng/mL | –
JHH4B037a (antibody, V domains shown) VH: EVQLVESGGGLVQPGRSLRLSCEASGFSFDDYAMHWVRQAPGKGLEWVSGISWNSVTIGYADSVKGRFTISRDNAKNSLYLEMNSLRTEDTALYYCAKELPTYRYYALDGWGQGTAVTVSS VL: not shown | 0.79 µg/mL | 3.88 ng/mL | ~0.8 µg/mL | ~5 ng/mL | 5.32 ng/mL | –
JHH1B2-8C (antibody, V domains shown) VH: QVQLQQSGPGLVKPSQTLSLTCAISGDSVSSNSAAWNWIRQSPSRGLEWLGRTYYRSKWYNDYAVSVKSRITINPDTSKNQFSLQLNSVTPEDTAVYYCAREGVLRYFDWLSGAFDIWGQGTMVTVSS VL: not shown | 1.18 µg/mL | 5.49 ng/mL | ~1 µg/mL | – | – | –
